Measurements as given in patent US20180155451A1 (published 2018).

T1: FcγRIIa R (human FcγRIIa, allotype R, Arg at position 131), extracellular domain with C-terminal His tag (human, UniProt P12318 34-217)
T1 construct: extracellular domain; expressed in FreeStyle293 cells; analyte in Biacore; also called 2aR; FcgRIIa R
T1 sequence (looked up): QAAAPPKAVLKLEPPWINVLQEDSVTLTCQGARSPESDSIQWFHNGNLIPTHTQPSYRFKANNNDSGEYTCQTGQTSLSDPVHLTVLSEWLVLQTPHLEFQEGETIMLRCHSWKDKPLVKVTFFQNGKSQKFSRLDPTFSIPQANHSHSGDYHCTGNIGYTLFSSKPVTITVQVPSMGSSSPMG

T2: FcγRIIb extracellular domain with C-terminal His tag (human, UniProt P31994 43-217)
T2 construct: extracellular domain; also called FcgRIIb; 2b; not shown: His tag at the C terminus
T2 sequence (looked up): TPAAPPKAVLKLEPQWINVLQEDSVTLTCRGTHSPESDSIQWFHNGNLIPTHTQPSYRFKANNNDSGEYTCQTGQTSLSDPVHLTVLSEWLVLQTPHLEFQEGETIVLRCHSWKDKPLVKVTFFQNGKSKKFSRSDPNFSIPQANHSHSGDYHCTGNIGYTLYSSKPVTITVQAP

B1: GpH7-A5/GpH7-B3 variant P331_06M/GpL16-k0 (antibody, human IgG1, kappa)
heavy 1: not shown
heavy 2: not shown
light: DIVMTQSPLSLPVTPGEPASISCQASESLVHSNRNTYLHWYLQKPGQSPQLLIYKVSNRFSGVPDRFSGSGSGTDFTLKISRVEAEDVGVYYCSQNTHVPPTFGQGTKVEIERTVAAPSVFIFPPSDEQLKSGTASVVCLLNNFYPREAKVQWKVDNALQSGNSQESVTEQDSKDSTYSLSSTLTLSKADYEKHKVYACEVTHQGLSSPVTKSFNRGEC
notes: heterodimerized antibody, mutation in one H chain only; also called He Ab
B2: GpH7-A5/GpH7-B3 variant Q295_06M/GpL16-k0 (antibody, human IgG1, kappa)
heavy 1: not shown
heavy 2: not shown
light: B1 light
notes: as for B1
B3: GpH7-A5/GpH7-B3 variant S337_04F/GpL16-k0 (antibody, human IgG1, kappa)
heavy 1: not shown
heavy 2: not shown
light: B1 light
notes: as for B1
B4: GpH7-A5/GpH7-B3 variant P331_07I/GpL16-k0 (antibody, human IgG1, kappa)
heavy 1: not shown
heavy 2: not shown
light: B1 light
notes: as for B1
B5: GpH7-A5/GpH7-B3 variant S239_14T/GpL16-k0 (antibody, human IgG1, kappa)
heavy 1: not shown
heavy 2: not shown
light: B1 light
notes: as for B1
B6: GpH7-A5/GpH7-B3 variant S337_03V/GpL16-k0 (antibody, human IgG1, kappa)
heavy 1: not shown
heavy 2: not shown
light: B1 light
notes: as for B1
B7: GpH7-A5/GpH7-B3 variant S239_05P/GpL16-k0 (antibody, human IgG1, kappa)
heavy 1: not shown
heavy 2: not shown
light: B1 light
notes: as for B1
B8: GpH7-A5/GpH7-B3 variant S239_07I/GpL16-k0 (antibody, human IgG1, kappa)
heavy 1: not shown
heavy 2: not shown
light: B1 light
notes: as for B1
B9: GpH7-A5/GpH7-B3 variant P331_14T/GpL16-k0 (antibody, human IgG1, kappa)
heavy 1: not shown
heavy 2: not shown
light: B1 light
notes: as for B1
B10: GpH7-A5/GpH7-B3 variant S239_06M/GpL16-k0 (antibody, human IgG1, kappa)
heavy 1: not shown
heavy 2: not shown
light: B1 light
notes: as for B1
B11: GpH7-A5/GpH7-B3 variant P331_08L/GpL16-k0 (antibody, human IgG1, kappa)
heavy 1: not shown
heavy 2: not shown
light: B1 light
notes: as for B1
B12: GpH7-A5/GpH7-B3 variant P331_18N/GpL16-k0 (antibody, human IgG1, kappa)
heavy 1: not shown
heavy 2: not shown
light: B1 light
notes: as for B1
B13: GpH7-A5/GpH7-B3 variant P331_13S/GpL16-k0 (antibody, human IgG1, kappa)
heavy 1: not shown
heavy 2: not shown
light: B1 light
notes: as for B1
B14: GpH7-A5/GpH7-B3 variant Q295_10E/GpL16-k0 (antibody, human IgG1, kappa)
heavy 1: not shown
heavy 2: not shown
light: B1 light
notes: as for B1
B15: GpH7-A5/GpH7-B3 variant P331_10E/GpL16-k0 (antibody, human IgG1, kappa)
heavy 1: not shown
heavy 2: not shown
light: B1 light
notes: as for B1
B16: GpH7-A5/GpH7-B3 variant P331_09D/GpL16-k0 (antibody, human IgG1, kappa)
heavy 1: not shown
heavy 2: not shown
light: B1 light
notes: as for B1
B17: GpH7-A5/GpH7-B3 variant S298_04F/GpL16-k0 (antibody, human IgG1, kappa)
heavy 1: not shown
heavy 2: not shown
light: B1 light
notes: position is EU numbering; also called He Ab
B18: GpH7-A5/GpH7-B3 variant S324_10E/GpL16-k0 (antibody, human IgG1, kappa)
heavy 1: not shown
heavy 2: not shown
light: B1 light
notes: as for B17
B19: GpH7-A5/GpH7-B3 variant S324_16H/GpL16-k0 (antibody, human IgG1, kappa)
heavy 1: not shown
heavy 2: not shown
light: B1 light
notes: as for B17
B20: GpH7-A5/GpH7-B3 variant Y300_13S/GpL16-k0 (antibody, human IgG1, kappa)
heavy 1: not shown
heavy 2: not shown
light: B1 light
notes: as for B17
B21: GpH7-A5/GpH7-B3 variant Y300_01G/GpL16-k0 (antibody, human IgG1, kappa)
heavy 1: not shown
heavy 2: not shown
light: B1 light
notes: as for B17
B22: GpH7-A5/GpH7-B3 variant S324_11K/GpL16-k0 (antibody, human IgG1, kappa)
heavy 1: not shown
heavy 2: not shown
light: B1 light
notes: as for B17
B23: GpH7-A5/GpH7-B3 variant Y296_20W/GpL16-k0 (antibody, human IgG1, kappa)
heavy 1: not shown
heavy 2: not shown
light: B1 light
notes: as for B17
B24: GpH7-A5/GpH7-B3 variant S298_09D/GpL16-k0 (antibody, human IgG1, kappa)
heavy 1: not shown
heavy 2: not shown
light: B1 light
notes: as for B17
B25: GpH7-A5/GpH7-B3 variant S324_19Q/GpL16-k0 (antibody, human IgG1, kappa)
heavy 1: not shown
heavy 2: not shown
light: B1 light
notes: as for B17
B26: GpH7-A5/GpH7-B3 variant Y300_07I/GpL16-k0 (antibody, human IgG1, kappa)
heavy 1: not shown
heavy 2: not shown
light: B1 light
notes: as for B17
B27: GpH7-A5/GpH7-B3 variant S298_15Y/GpL16-k0 (antibody, human IgG1, kappa)
heavy 1: not shown
heavy 2: not shown
light: B1 light
notes: as for B17
B28: GpH7-A5/GpH7-B3 variant Y300_08L/GpL16-k0 (antibody, human IgG1, kappa)
heavy 1: not shown
heavy 2: not shown
light: B1 light
notes: as for B17
B29: GpH7-A5/GpH7-B3 variant S324_12R/GpL16-k0 (antibody, human IgG1, kappa)
heavy 1: not shown
heavy 2: not shown
light: B1 light
notes: as for B17
B30: GpH7-A5/GpH7-B3 variant Y300_14T/GpL16-k0 (antibody, human IgG1, kappa)
heavy 1: not shown
heavy 2: not shown
light: B1 light
notes: as for B17
B31: GpH7-A5/GpH7-B3 variant S298_16H/GpL16-k0 (antibody, human IgG1, kappa)
heavy 1: not shown
heavy 2: not shown
light: B1 light
notes: as for B17
B32: GpH7-A5/GpH7-B3 variant S298_14T/GpL16-k0 (antibody, human IgG1, kappa)
heavy 1: not shown
heavy 2: not shown
light: B1 light
notes: as for B17
B33: GpH7-A5/GpH7-B3 variant S324_01G/GpL16-k0 (antibody, human IgG1, kappa)
heavy 1: not shown
heavy 2: not shown
light: B1 light
notes: as for B17
B34: GpH7-A5/GpH7-B3 variant S298_07I/GpL16-k0 (antibody, human IgG1, kappa)
heavy 1: not shown
heavy 2: not shown
light: B1 light
notes: as for B17
B35: GpH7-A5/GpH7-B3 variant S324_02A/GpL16-k0 (antibody, human IgG1, kappa)
heavy 1: not shown
heavy 2: not shown
light: B1 light
notes: as for B17

Biological target: T1, FcγRIIa R (human FcγRIIa, allotype R, …)
Assay: SPR (Biacore), relative binding vs GpH7-A5/GpH7-B3/GpL16-k0
Description: Analysis of interaction between objective antibody and the FcγR was carried out using Biacore T100 (GE Healthcare). HBS-EP+ (GE Healthcare) was used as the running buffer, and the measurement temperature was set to 25° C. Chips produced by immobilizing the antigen peptide by the amine coupling method to a Series S Sencor Chip CM5 (GE Healthcare), or alternatively, chips produced by allowing preliminarily biotinylated antigen peptides to interact with and immobilize onto a Series S Sensor Chip SA (certified) (GE Healthcare) were used. Antibodies of interest were captured onto an antigen peptide-immobilized chip, and allowed to interact to each FcγR diluted with running buffer. To regenerate and repeatedly use the chip, the antibodies captured on the chip were washed off by reacting 10 mM glycine-HCl, pH 1.5.
The FcγR-binding activity of each antibody was assessed primarily using as an indicator the FcγR-binding activity and dissociation constant for FcγR.

He/Con_2aR | Binder
106 relative, control = 100 | B1
102 relative, control = 100 | B2
105 relative, control = 100 | B3
110 relative, control = 100 | B4
103 relative, control = 100 | B5
106 relative, control = 100 | B6
106 relative, control = 100 | B7
102 relative, control = 100 | B8
104 relative, control = 100 | B9
101 relative, control = 100 | B10
102 relative, control = 100 | B11
105 relative, control = 100 | B12
105 relative, control = 100 | B13
102 relative, control = 100 | B14
113 relative, control = 100 | B15
102 relative, control = 100 | B16

Biological target: T3, FcγRIIIa extracellular domain with C-terminal His tag (human, UniProt P08637 17-208)
T3 construct: extracellular domain; also called FcgRIIIa; 3a; not shown: His tag at the C terminus
Assay: SPR (Biacore); ratio of He/Con_3a (FcγRIIIa) to He/Con_2b (FcγRIIb)
Outline: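 Each FcγR was diluted in HBS-EP+ and injected at 25 °C over antibody held by an antigen-peptide sensor surface. Bound antibody was stripped with 10 mM glycine-HCl, pH 1.5, so chips could be reused.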

T3 sequence (P08637 17-208): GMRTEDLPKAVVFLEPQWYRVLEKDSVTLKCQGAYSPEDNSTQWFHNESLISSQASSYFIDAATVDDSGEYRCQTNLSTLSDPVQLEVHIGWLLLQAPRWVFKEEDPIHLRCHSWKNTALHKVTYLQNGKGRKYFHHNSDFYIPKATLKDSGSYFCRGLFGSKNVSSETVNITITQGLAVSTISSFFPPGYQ

He_3a/2b (IIIa/IIb) [ratio] | Binder
1.26 | B17
1.28 | B18
1.24 | B19
1.37 | B20
1.69 | B21
1.21 | B22
1.31 | B23
1.38 | B24
1.33 | B25
1.28 | B26
1.39 | B27
1.43 | B28
1.43 | B29
1.53 | B30
1.2 | B31
1.45 | B32
1.29 | B33
1.37 | B34
1.33 | B35

Biological target: T2, FcγRIIb extracellular domain with …
Assay: SPR (Biacore), antibody captured, FcγR as analyte; He Ab binding / GpH7-A5/GpH7-B3/GpL16-k0 binding x 100

He/Con_2b (IIb binding) | Binder
65.4 relative, control = 100 | B17
77.4 relative, control = 100 | B18
83.5 relative, control = 100 | B19
53.9 relative, control = 100 | B20
48.4 relative, control = 100 | B21
68.6 relative, control = 100 | B22
103 relative, control = 100 | B23
48.3 relative, control = 100 | B24
66.8 relative, control = 100 | B25
74.5 relative, control = 100 | B26
61.4 relative, control = 100 | B27
73.6 relative, control = 100 | B28
63.1 relative, control = 100 | B29
55.6 relative, control = 100 | B30
63.5 relative, control = 100 | B31
77.9 relative, control = 100 | B32
81.1 relative, control = 100 | B33
70.6 relative, control = 100 | B34
78.3 relative, control = 100 | B35

Biological target: T3, FcγRIIIa extracellular domain with …
Assay: as above

He/Con_3a (IIIa binding) | Binder
82.5 relative, control = 100 | B17
99.3 relative, control = 100 | B18
104 relative, control = 100 | B19
73.9 relative, control = 100 | B20
81.6 relative, control = 100 | B21
83 relative, control = 100 | B22
135 relative, control = 100 | B23
66.7 relative, control = 100 | B24
88.5 relative, control = 100 | B25
95.1 relative, control = 100 | B26
85.6 relative, control = 100 | B27
105 relative, control = 100 | B28
90.3 relative, control = 100 | B29
85.4 relative, control = 100 | B30
76.5 relative, control = 100 | B31
113 relative, control = 100 | B32
105 relative, control = 100 | B33
96.4 relative, control = 100 | B34
104 relative, control = 100 | B35
